Laboratory results published in PMC10786891, “Massively parallel profiling of RNA-targeting CRISPR-Cas13d”.
Where a chain is given by its changes, count along the chain named. Names may count otherwise.

Target: T1, EsCas13d, nuclease-dead (Eubacterium siraeum, UniProt B0MS50, R295A;H300A;R849A;H854A)
T1 sequence: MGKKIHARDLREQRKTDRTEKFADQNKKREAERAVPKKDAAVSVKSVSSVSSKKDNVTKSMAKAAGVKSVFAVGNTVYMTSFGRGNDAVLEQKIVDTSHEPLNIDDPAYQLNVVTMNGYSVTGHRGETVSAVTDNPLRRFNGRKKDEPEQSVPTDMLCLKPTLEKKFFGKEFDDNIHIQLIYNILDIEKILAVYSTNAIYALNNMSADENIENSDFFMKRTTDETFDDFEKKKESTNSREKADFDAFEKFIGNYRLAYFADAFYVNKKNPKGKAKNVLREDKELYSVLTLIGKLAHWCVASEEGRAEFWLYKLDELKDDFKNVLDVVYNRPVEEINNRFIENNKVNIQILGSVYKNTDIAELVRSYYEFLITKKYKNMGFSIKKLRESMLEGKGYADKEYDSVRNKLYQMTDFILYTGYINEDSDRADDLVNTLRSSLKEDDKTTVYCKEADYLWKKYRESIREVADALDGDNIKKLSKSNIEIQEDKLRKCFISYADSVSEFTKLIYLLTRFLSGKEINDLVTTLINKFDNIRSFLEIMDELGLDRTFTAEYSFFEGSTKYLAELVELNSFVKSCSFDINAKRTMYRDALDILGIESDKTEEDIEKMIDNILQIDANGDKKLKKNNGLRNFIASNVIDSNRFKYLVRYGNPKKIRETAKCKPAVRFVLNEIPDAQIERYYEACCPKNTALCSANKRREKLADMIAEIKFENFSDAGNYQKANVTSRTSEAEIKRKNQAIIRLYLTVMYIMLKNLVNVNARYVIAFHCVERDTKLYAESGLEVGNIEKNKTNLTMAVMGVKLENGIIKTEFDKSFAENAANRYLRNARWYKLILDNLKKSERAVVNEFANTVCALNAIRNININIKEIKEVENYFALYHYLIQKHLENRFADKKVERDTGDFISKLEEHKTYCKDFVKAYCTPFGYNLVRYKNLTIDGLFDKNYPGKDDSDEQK
Assay: crRNA (strand 1, pre-loaded); Mg2+; 40 mM Tris-HCl pH 7.5, 150 mM NaCl, 6 mM MgCl2, 1 mM DTT, 0.1% Tween-20, 0.2 mg/ml BSA; 25 C; 10 min per concentration, then washed
Conditions: tags: His6-TwinStrep-SUMO cleaved; N-terminal SNAP kept (SNAP-Surface 488); label: 3' end held by stalled T7 RNA polymerase

B1: target 1 insC 3' of 15,insA 3' of 4 (mixed)
RNA 1: CACCCGUGCAAAAAUGCAGGGGUCUAAAACUGAGCGGAUAACCUCUCUAUGG
RNA 2: GGGAAUGGAUCCACAUCUACGAAUUCGUACCAUAGAGCAGGUUAUCCGCAUCACCGAGAUCGGAAGAGCACACGU
Binder B1 has a Kd of 6.5 ± 0.5 nM.

B2: target 1 insC 3' of 20,insC 3' of 14 (mixed)
RNA 1: B1 RNA 1
RNA 2: GGGAAUGGAUCCACAUCUACGAAUUCGUACCACUAGAGACGGUUAUCCGCUCACCGAGAUCGGAAGAGCACACGU
B2 was tested, and the Kd was 3.1 ± 0.5 nM.

B3: target 1 C4A,U8A (mixed)
RNA 1: B1 RNA 1
RNA 2: GGGAAUGGAUCCACAUCUACGAAUUCGUACCAUAGAGAGGUUAACCGAUCACCGAGAUCGGAAGAGCACACGU
For B3, the Kd was 25.3 ± 2.1 nM.

B4: target 1 insG 3' of 7,insA 3' of 4 (mixed)
RNA 1: B1 RNA 1
RNA 2: B1 RNA 2 with C38A, A39G, G41U, U43A, A44U, U45C, C46G
Binder B4 has a Kd of 5.49 ± 0.24 nM.

B5: target 1 insC 3' of 22,insG 3' of 10 (mixed)
RNA 1: B1 RNA 1
RNA 2: B2 RNA 2 with A32C, C33A, C40G, G42U, U44G
B5 gave a Kd of 34.4 ± 2.2 nM.

B6: target 1 insU 3' of 13,insC 3' of 9 (mixed)
RNA 1: B1 RNA 1
RNA 2: B1 RNA 2 with C38A, A39G, G40U, U45C, C46U, G48C, C49G, A50C
In the case of B6, the Kd is reported as 18.8 ± 2.4 nM.

B7: target 1 insU 3' of 12,insG 3' of 8 (mixed)
RNA 1: B1 RNA 1
RNA 2: B1 RNA 2 with C38A, A39G, G41U, C46G, G48C, C49G, A50C
With B7 the Kd was 9.41 ± 0.34 nM.

B8: target 1 G12A,G15C (mixed)
RNA 1: B1 RNA 1
RNA 2: B3 RNA 2 with G37C, G40A, A44U, A48C
Binder B8 has a Kd of 57 ± 15 nM.

B9: target 1 A1G,U11A (mixed)
RNA 1: B1 RNA 1
RNA 2: B3 RNA 2 with U41A, A44U, A48C, A51G
B9 gave a Kd of 34 ± 4 nM.

B10: target 1 A1C,U11A (mixed)
RNA 1: B1 RNA 1
RNA 2: B3 RNA 2 with U41A, A44U, A48C, A51C
In the case of B10, the Kd is reported as 44 ± 10 nM.

B11: target 1 insG 3' of 19,insG 3' of 19 (mixed)
RNA 1: B1 RNA 1
RNA 2: B2 RNA 2 with C33U, U34G, A35G, G36A, A37G, G38A, A39G, C40A
B11 gave a Kd of 56 ± 15 nM.

B12: target 1 insA 3' of 10,insG 3' of 1 (mixed)
RNA 1: B1 RNA 1
RNA 2: B1 RNA 2 with C38A, A39G, G41U, U43A, A50U, U51C, C52A, A53G
Work on B12 yielded a Kd of 14.4 ± 1.2 nM.

B13: target 1 C4A,C6U (mixed)
RNA 1: B1 RNA 1
RNA 2: B3 RNA 2 with A44U, C46U
For B13, the Kd was 4.16 ± 0.27 nM.

B14: target 1 insA 3' of 15,insG 3' of 7 (mixed)
RNA 1: B1 RNA 1
RNA 2: B1 RNA 2 with C38A, C47G, G48C, C49G, A50C
In the case of B14, the Kd is reported as 6.15 ± 0.19 nM.

B15: target 1 insA 3' of 7,insG 3' of 7 (mixed)
RNA 1: B1 RNA 1
RNA 2: GGGAAUGGAUCCACAUCUACGAAUUCGUACCAUAGAGAGGUUAUCAGCGCUCACCGAGAUCGGAAGAGCACACGU
Binder B15 has a Kd of 13 ± 0.9 nM.

B16: target 1 A9C,U11A (mixed)
RNA 1: B1 RNA 1
RNA 2: B3 RNA 2 with U41A, A43C, A44U, A48C
Binder B16 has a Kd of 59 ± 13 nM.

B17: target 1 insG 3' of 16 (mixed)
RNA 1: B1 RNA 1
RNA 2: GGGAAUGGAUCCACAUCUACGAAUUCGUACCAUAGAGGAGGUUAUCCGCUCACCGAGAUCGGAAGAGCACACGU
Work on B17 yielded a Kd of 12.1 ± 1.1 nM.

B18: target 1 insC 3' of 22,insU 3' of 17 (mixed)
RNA 1: B1 RNA 1
RNA 2: B2 RNA 2 with A32C, C33A, A37U, G38A, A39G, C40A
In the case of B18, the Kd is reported as 25.2 ± 2.7 nM.

B19: target 1 insG 3' of 21,insU 3' of 2 (mixed)
RNA 1: B1 RNA 1
RNA 2: GGGAAUGGAUCCACAUCUACGAAUUCGUACCGAUAGAGAGGUUAUCCGCUCUACCGAGAUCGGAAGAGCACACGU
B19 was tested, and the Kd was 70 ± 9 nM.

B20: target 1 G12A,C22U (mixed)
RNA 1: B1 RNA 1
RNA 2: B3 RNA 2 with C30U, G40A, A44U, A48C
B20 showed a Kd of 13 ± 1.1 nM.

B21: target 1 insG 3' of 18,insU 3' of 9 (mixed)
RNA 1: B1 RNA 1
RNA 2: B2 RNA 2 with C33U, U34A, A35G, C40G, G42U, U44A, A45U
With B21 the Kd was 71 ± 10 nM.

B22: target 1 insA 3' of 10,insU 3' of 1 (mixed)
RNA 1: B1 RNA 1
RNA 2: B1 RNA 2 with C38A, A39G, G41U, U43A, A50U, U51C, C52A, A53U
Work on B22 yielded a Kd of 13.9 ± 0.8 nM.

B23: target 1 C7G,A9C (mixed)
RNA 1: B1 RNA 1
RNA 2: B3 RNA 2 with A43C, A44U, C45G, A48C
B23 was tested, and the Kd was 9.26 ± 0.33 nM.

B24: target 1 insC 3' of 22,insA 3' of 22 (mixed)
RNA 1: B1 RNA 1
RNA 2: B2 RNA 2 with U34A, A35U, G36A, A37G, G38A, A39G, C40A
B24 was tested, and the Kd was 10 ± 0.9 nM.

B25: target 1 insC 3' of 19,insA 3' of 17 (mixed)
RNA 1: B1 RNA 1
RNA 2: B2 RNA 2 with C33U, U34C, G38A, A39G, C40A
With B25 the Kd was 49 ± 7 nM.

B26: target 1 insA 3' of 10,insC 3' of 1 (mixed)
RNA 1: B1 RNA 1
RNA 2: B1 RNA 2 with C38A, A39G, G41U, U43A, A50U, U51C, C52A, A53C
B26 gave a Kd of 12.6 ± 0.6 nM.

B27: target 1 insA 3' of 10,insA 3' of 2 (mixed)
RNA 1: B1 RNA 1
RNA 2: B1 RNA 2 with C38A, A39G, G41U, U43A, A50U, U51C, C52A
Binder B27 has a Kd of 14 ± 0.8 nM.

B28: target 1 U3G,U10C (mixed)
RNA 1: B1 RNA 1
RNA 2: B3 RNA 2 with U42C, A44U, A48C, U49G
B28 was tested, and the Kd was 14 ± 0.6 nM.

B29: target 1 insA 3' of 15,insG 3' of 9 (mixed)
RNA 1: B1 RNA 1
RNA 2: B1 RNA 2 with C38A, U45G, C46U, G48C, C49G, A50C
Work on B29 yielded a Kd of 8.7 ± 0.7 nM.
